Measurements: US20210380994A1, “LACTOCOCCUS LACTIS EXPRESSION SYSTEM FOR DELIVERING PROTEINS EFFICACIOUS FOR THE TREATMENT OF EPITHELIAL BARRIER FUNCTION DISORDERS” (Second Genome, Inc., priority 2018, published 2021)

Tested on: C57BL/6 mice treated with DSS
Assay: therapeutic DSS model of inflammatory bowel disease, treatment after 7 days DSS (Examples 5, 13B)
Format: in vivo
Conditions: for body weight change: 50 nmoles/kg, day 11, p<0.05; for colon weight to length ratio: p<0.01
Description: Following a 7-day acclimation period, the mice were provided with drinking water containing 2.5% DSS for 7 days. Fresh 2.5% DSS water was prepared every 2 days during the 7 day DSS administration. For this therapeutic DSS study, SG-11 used to treat the animals was fused at its N-terminus to a FLAG Tag (DYKDDDDK; SEQ ID NO:32).
On day 7, normal drinking water was restored and i.p. treatments of 50 nmole/kg of SG-11 ([…]) or Gly2-GLP2 (0.2 mg/kg) were initiated. Treatments were administered twice a day (b.i.d.), with a morning and evening dose (every 8 and 16 hours) for six days.
Body weight was measured daily during the morning treatment. The colon tissue was then harvested and length was measured in centimeters and the tissue was weighed. Fecal material was flushed from the colon and residual PBS removed by gently running the colon tissue through a pair of forceps. The colon tissue was then weighed and colon weight to length ratio in mg/mm was determined. Following weight measurements proximal and distal colon tissue was banked for RNA and protein analysis and the remaining tissues was fixed in 10% neutral buffered formalin for histopathology. Statistical analysis was performed by a one-way ANOVA compared to DSS+vehicle for serum 4KDa-FITC translocation, scrum LBP concentrations, colon length, and colon weight to length ratio, while a two-way ANOVA was performed for analysis of body weight. In all analysis, a Fisher's LSD test for multiple comparisons was used. Graphs represent data pooled from two experiments, and are plotted as mean±SEM.
Histopathology analysis was performed on proximal and distal colon tissues from the therapeutic DSS model described above. Proximal (FIG. 13A) and distal (FIG. 13B) colon scores (range 0-4) are presented as well as the total score for the colon which represents the sum of proximal and distal colon scores (Range 0-8) (FIG. 13C). LMA=Loss of mucosal architecture, Edema=Edema, INF=Inflammation, TMI=Transmural inflammation, MH=Mucosal hyperplasia, DYS=Dysplasia. Graphs represent data pooled from two independent experiments, and are plotted as mean±SEM. Statistical analysis was performed by a one-way ANOVA compared to DSS+vehicle followed by a Fisher's LSD test for multiple comparisons.
In the second experiment (Example 13B), mice were provided with drinking water containing 2.5% DSS for 7 days. […] Treatments were administered twice a day (b.i.d.), with a morning and evening dose (every 8 and 16 hours) for 4 days. For both the prophylactic and therapeutic models, fresh 2.5% DSS water was prepared every 2 days during the DSS administration.
At the end of each DSS model study, mice were fasted for 4 hours and then orally gavaged with 600 mg/kg 4KDa dextran labeled with FITC [4KDa-FITC]. One hour after the 4KDa-FITC gavage, mice were euthanized, blood was collected, and FITC signal was measured in serum. […] Data in both graphs are plotted as mean±SEM and each figure represent data from an individual experiment (n=10 per group).
Upon completion of the OSS models above. LBP levels were measured as an inflammation centric readout of barrier function following the protocol detailed in Example 5. Upon completion of both DSS models (Examples 13A and 13B), blood was collected and serum was isolated. LPS binding protein (LBP) levels were measured in serum using a commercially available ELISA Kit (Enzo Lift Sciences).

[1] = Example 5, 50 nmole/kg i.p. b.i.d. six days after 7 days DSS
[2] = Example 13B, 50 nmole/kg i.p. b.i.d. 4 days after 7 days DSS

| Molecule | histopathology: inflammation and transmural inflammation scores (Example 5) | histopathology: loss of mucosal architecture score (Example 5) | body weight [1] | colon length [1] | colon weight to length [1] | serum LBP (Example 5, 50 nmole/kg i.p. b.i.d. six days after 7 days DSS, FLAG-tagged SG-11) | frequency of thick colons (Example 5, DSS+vehicle 88%, p<0.0001) [%] | colon length (Example 13B (FIG. 22B)) | serum LBP [2] | body weight change (Example 13B) | colon weight to length ratio (Example 13B) |
| --- | --- | --- | --- | --- | --- | --- | --- | --- | --- | --- | --- |
| SG-11: Roseburia hominis protein comprising SEQ ID NO:3; tested as SEQ ID NO:5, SEQ ID NO:7 or FLAG-tagged SEQ ID NO:9 (protein, listed as Rosburia hominis) LEGEESVVYVGKKGVIASLDVETLDQSYYDETELKSYVDAEVEDYTAEHGKNAVKVESLKVEDGVAKLKMKYKTPEDYTAFNGIELYQGKVVASLAAGYVYDGEFARVEEGKVVGAATKQDIYSEDDLKVAIIRANTDVKVDGEICYVSCQNVKLTGKDSVSIRDGYYLETGSVTASVDVTGQESVGTEQLSGTEQMEMTGEPVNADDTEQTEAAAGDGSFETDVYTFIVYK | no change | modest, but significant reduction | significant improvements | significant improvements | significant improvements | no reduction in LBP | 25 | significant increase in the colon length | no reduction in LBP | statistically improved body weight changes | significantly improved colon weight to length ratios |
| SG-11V5: variant of SEQ ID NO:7 with N53S, N83S, C147V, C151S (protein, Artificial variant of SG-11 (N53S, N83S, C147V, C151S)) MLEGEESVVYVGKKGVIASLDVETLDQSYYDETELKSYVDAEVEDYTAEHGKSAVKVESLKVEDGVAKLKMKYKTPEDYTAFSGIELYQGKVVASLAAGYVYDGEFARVEEGKVVGAATKQDIYSEDDLKVAIIRANTDVKVDGEIVYVSSQNVKLTGKDSVSIRDGYYLETGSVTASVDVTGQESVGTEQLSGTEQMEMTGEPVNADDTEQTEAAAGDGSFETDVYTFIVYK | – | – | – | – | – | – | – | significant increase in the colon length | no reduction in LBP | statistically improved body weight changes | significantly improved colon weight to length ratios |
